In publication PMC4835091, “Characterization of the FtsZ C-Terminal Variable (CTV) Region in Z-Ring Assembly and Interaction with the Z-Ring Stabilizer ZapD in E. coli Cytokinesis” (PLoS ONE, 2016):
Positions count from the first letter of the chain named. In names and notes the source's numbering stands.

T1: GAL4 BD-ZapD fusion (E. coli, UniProt P36680 1-247)
T1 construct: ZapD, Z-ring stabilizer of E. coli; also called pDEST-GBKT7-zapD; source: yeast two-hybrid fusion (pDEST-GBKT7-zapD in S. cerevisiae PJ69-4A, diploid after mating)
T1 sequence (looked up): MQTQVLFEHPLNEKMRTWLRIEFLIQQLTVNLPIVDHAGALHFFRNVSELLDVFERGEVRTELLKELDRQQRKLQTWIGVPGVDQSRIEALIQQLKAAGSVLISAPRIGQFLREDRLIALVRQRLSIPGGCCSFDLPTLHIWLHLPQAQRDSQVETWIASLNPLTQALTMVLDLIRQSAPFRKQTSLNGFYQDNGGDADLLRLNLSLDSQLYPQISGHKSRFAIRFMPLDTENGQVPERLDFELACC

B1: GAL4 AD-FtsZ(NRNKRG) fusion (natural protein, E. coli | B. subtilis)
chain: MFEPMELTNDAVIKVIGVGGGGGNAVEHMVRERIEGVEFFAVNTDAQALRKTAVGQTIQIGSGITKGLGAGANPEVGRNAADEDRDALRAALEGADMVFIAAGMGGGTGTGAAPVVAEVAKDLGILTVAVVTKPFNFEGKKRMAFAEQGITELSKHVDSLITIPNDKLLKVLGRGISLLDAFGAANDVLKGAVQGIAELITRPGLMNVDFADVRTVMSEMGYAMMGSGVASGEDRAEEAAEMAISSPLLEDIDLSGARGVLVNITAGFDLRLDEFETVGNTIRAFASDNATVVIGTSLDPDMNDELRVTVVATGIGMDKRPEITLVTNKQVQQPVMDRYQQHGMAPLTQEQKPVAKVVNDNAPQTAKEPDYLDIPAFLRNRNKRG
notes: FtsZ of E. coli up to the CTV; the native CTV KQAD (380-383) is replaced by the next part; also called E. coli FtsZ with the B. subtilis CTV; source: yeast two-hybrid fusion (pDEST-GADT7-ftsZ(NRNKRG) in S. cerevisiae SL3004, diploid after mating)
B2: GAL4 AD-FtsZ(DQAK) fusion (natural protein, E. coli, UniProt P0A9A6 1-383, looked up)
chain: MFEPMELTNDAVIKVIGVGGGGGNAVEHMVRERIEGVEFFAVNTDAQALRKTAVGQTIQIGSGITKGLGAGANPEVGRNAADEDRDALRAALEGADMVFIAAGMGGGTGTGAAPVVAEVAKDLGILTVAVVTKPFNFEGKKRMAFAEQGITELSKHVDSLITIPNDKLLKVLGRGISLLDAFGAANDVLKGAVQGIAELITRPGLMNVDFADVRTVMSEMGYAMMGSGVASGEDRAEEAAEMAISSPLLEDIDLSGARGVLVNITAGFDLRLDEFETVGNTIRAFASDNATVVIGTSLDPDMNDELRVTVVATGIGMDKRPEITLVTNKQVQQPVMDRYQQHGMAPLTQEQKPVAKVVNDNAPQTAKEPDYLDIPAFLRDQAK
notes: FtsZ of E. coli with the native CTV KQAD replaced by DQAK (net-neutral); source: yeast two-hybrid fusion (pDEST-GADT7-ftsZ(DQAK) in S. cerevisiae SL3004, diploid after mating)
B3: GAL4 AD-FtsZ(RQAR) fusion (natural protein, E. coli, UniProt P0A9A6 1-383, looked up)
chain: B2 chain with D380R, K383R
notes: FtsZ of E. coli with the native CTV KQAD replaced by RQAR (net-positive); source: yeast two-hybrid fusion (pDEST-GADT7-ftsZ(RQAR) in S. cerevisiae SL3004, diploid after mating)
B4: GAL4 AD-FtsZ(QQQQ) fusion (natural protein, E. coli, UniProt P0A9A6 1-383, looked up)
chain: B2 chain with D380Q, A382Q, K383Q
notes: FtsZ of E. coli with the native CTV KQAD replaced by QQQQ (net-neutral); source: yeast two-hybrid fusion (pDEST-GADT7-ftsZ(QQQQ) in S. cerevisiae SL3004, diploid after mating)
B5: FtsZ(NRNKRG) (purified) (natural protein, E. coli | B. subtilis)
chain: B1 chain
notes: FtsZ of E. coli up to the CTV; the native CTV KQAD (380-383) is replaced by the next part; also called EcftsZCTVB; source: E. coli C41(DE3), purified (25% saturated ammonium sulfate cut)
B6: FtsZ(DQAK) (purified) (natural protein, E. coli, UniProt P0A9A6 1-383, looked up)
chain: B2 chain
notes: FtsZ of E. coli with the native CTV KQAD replaced by DQAK (net-neutral); pKHH9, pET-21b(+); also called net-neutral CTV mutant; source: E. coli C41(DE3), purified (25% saturated ammonium sulfate cut)
B7: FtsZ(DQAD) (purified) (natural protein, E. coli, UniProt P0A9A6 1-383, looked up)
chain: B2 chain with K383D
notes: FtsZ of E. coli with the CTV DQAD (net-negative) in place of KQAD; pKHH7, pET-21b(+); also called K380D; net-negative CTV mutant; source: E. coli C41(DE3), purified (20% ammonium sulfate cut)
B8: FtsZ(RQAR) (purified) (natural protein, E. coli, UniProt P0A9A6 1-383, looked up)
chain: B2 chain with D380R, K383R
notes: FtsZ of E. coli with the native CTV KQAD replaced by RQAR (net-positive); pAM3, pET-21b(+); also called net-positive CTV mutant; source: E. coli C41(DE3), purified (25% saturated ammonium sulfate cut)
B9: FtsZ(KQAK) (purified) (natural protein, E. coli, UniProt P0A9A6 1-383, looked up)
chain: B2 chain with D380K
notes: FtsZ of E. coli with the native CTV KQAD replaced by KQAK (net-positive); pKHH8, pET-21b(+); also called net-positive CTV mutant; source: E. coli C41(DE3), purified (25% saturated ammonium sulfate cut)
B10: FtsZ(QQQQ) (purified) (natural protein, E. coli, UniProt P0A9A6 1-383, looked up)
chain: B2 chain with D380Q, A382Q, K383Q
notes: FtsZ of E. coli with the native CTV KQAD replaced by QQQQ (net-neutral); pLT1, pET-21b(+); also called net-neutral CTV mutant; source: E. coli C41(DE3), purified (25% saturated ammonium sulfate cut)
B11: FtsZ(1-379) (purified) (domain or fragment, E. coli, UniProt P0A9A6 1-379, looked up)
chain: MFEPMELTNDAVIKVIGVGGGGGNAVEHMVRERIEGVEFFAVNTDAQALRKTAVGQTIQIGSGITKGLGAGANPEVGRNAADEDRDALRAALEGADMVFIAAGMGGGTGTGAAPVVAEVAKDLGILTVAVVTKPFNFEGKKRMAFAEQGITELSKHVDSLITIPNDKLLKVLGRGISLLDAFGAANDVLKGAVQGIAELITRPGLMNVDFADVRTVMSEMGYAMMGSGVASGEDRAEEAAEMAISSPLLEDIDLSGARGVLVNITAGFDLRLDEFETVGNTIRAFASDNATVVIGTSLDPDMNDELRVTVVATGIGMDKRPEITLVTNKQVQQPVMDRYQQHGMAPLTQEQKPVAKVVNDNAPQTAKEPDYLDIPAFLR
notes: also called FtsZ lacking the CTV residues; FtsZ without the CTV region; source: E. coli C41(DE3), purified (25% saturated ammonium sulfate cut)

Molecular target: T1, GAL4 BD-ZapD fusion
Assay: two-hybrid; GAL4 BD-ZapD with GAL4 AD-FtsZ fusions in diploid yeast grown in YNB (-Leu-Trp) at 30°C; beta-galactosidase activity in Miller units, mean of 10 independent trials
Conditions: partners not purified

| β-galactosidase activity [Miller units] | Binder |
| --- | --- |
| 106 | B1 |
| 170 | B2 |
| 155 | B3 |
| 115 | B4 |

Molecular target: the molecule itself
Assay: sedimentation of FtsZ polymers; FtsZ or CTV mutant 5 μM alone in 50 mM K-MOPS pH 6.5, 50 mM KCl, 2.5 mM MgCl2, 3 μM BSA, 1 mM GTP, room temperature; TLA100.2, 80,000 rpm, 10 min; percent of FtsZ in the pellet by SDS-PAGE
Conditions: not given

| Binder | binding result |
| --- | --- |
| B5 | binds |
| B6 | binds |
| B7 | binds |
| B8 | binds |
| B9 | binds |
| B10 | binds |
| B11 | binds |
